These results are taken from FireProtDB (doi:10.1093/protein/14.11.891).

For the data set the following is noted: Salmonella typhimurium (strain LT2 / SGSC1412 / ATCC 700720), pH 7, CD, Potassium phosphate 10 mM, reversible: yes, whole UniProt chain shown.

B1: Sialidase wild type, P29768 (protein)
chain: MTVEKSVVFKAEGEHFTDQKGNTIVGSGSGGTTKYFRIPAMCTTSKGTIVVFADARHNTASDQSFIDTAAARSTDGGKTWNKKIAIYNDRVNSKLSRVMDPTCIVANIQGRETILVMVGKWNNNDKTWGAYRDKAPDTDWDLVLYKSTDDGVTFSKVETNIHDIVTKNGTISAMLGGVGSGLQLNDGKLVFPVQMVRTKNITTVLNTSFIYSTDGITWSLPSGYCEGFGSENNIIEFNASLVNNIRNSGLRRSFETKDFGKTWTEFPPMDKKVDNRNHGVQGSTITIPSGNKLVAAHSSAQNKNNDYTRSDISLYAHNLYSGEVKLIDDFYPKVGNASGAGYSCLSYRKNVDKETLYVVYEANGSIEFQDLSRHLPVIKSYN
Consider B1, for which, for the setting “25 °C, GdnHCl”, the “denaturant midpoint (higher = more stable)” value was 1.33 M and the unfolding free energy came to 4.24 kcal/mol. Moreover, the Tm (Thermal) is 57 °C.

One may read the Tm as the temperature at the midpoint of the melting transition.
